# Test results reported in patent US20080219962.
# Smurf1 (Smad ubiquitin regulatory factor 1), sequence (Q9HCE7 whole entry): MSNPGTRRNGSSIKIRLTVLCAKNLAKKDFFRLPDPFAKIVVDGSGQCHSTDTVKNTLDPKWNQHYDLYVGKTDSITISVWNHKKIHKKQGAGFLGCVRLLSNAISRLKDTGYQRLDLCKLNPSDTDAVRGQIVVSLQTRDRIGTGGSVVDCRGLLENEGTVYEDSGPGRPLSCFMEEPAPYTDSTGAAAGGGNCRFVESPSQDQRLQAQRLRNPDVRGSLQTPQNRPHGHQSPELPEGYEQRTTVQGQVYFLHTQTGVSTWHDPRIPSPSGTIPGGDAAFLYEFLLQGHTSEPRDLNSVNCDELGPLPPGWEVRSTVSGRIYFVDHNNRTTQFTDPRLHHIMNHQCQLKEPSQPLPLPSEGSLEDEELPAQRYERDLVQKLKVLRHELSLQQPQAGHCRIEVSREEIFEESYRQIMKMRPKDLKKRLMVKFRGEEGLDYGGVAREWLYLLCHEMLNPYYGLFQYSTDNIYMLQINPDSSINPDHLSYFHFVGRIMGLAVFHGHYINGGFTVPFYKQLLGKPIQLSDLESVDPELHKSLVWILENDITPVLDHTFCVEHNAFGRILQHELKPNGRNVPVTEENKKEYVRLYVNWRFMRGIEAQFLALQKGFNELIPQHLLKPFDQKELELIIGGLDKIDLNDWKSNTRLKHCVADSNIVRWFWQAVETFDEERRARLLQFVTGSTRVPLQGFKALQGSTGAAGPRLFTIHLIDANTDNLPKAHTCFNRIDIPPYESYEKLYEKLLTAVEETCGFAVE
# myc-labeled Runx2, sequence (chain, as listed by the source): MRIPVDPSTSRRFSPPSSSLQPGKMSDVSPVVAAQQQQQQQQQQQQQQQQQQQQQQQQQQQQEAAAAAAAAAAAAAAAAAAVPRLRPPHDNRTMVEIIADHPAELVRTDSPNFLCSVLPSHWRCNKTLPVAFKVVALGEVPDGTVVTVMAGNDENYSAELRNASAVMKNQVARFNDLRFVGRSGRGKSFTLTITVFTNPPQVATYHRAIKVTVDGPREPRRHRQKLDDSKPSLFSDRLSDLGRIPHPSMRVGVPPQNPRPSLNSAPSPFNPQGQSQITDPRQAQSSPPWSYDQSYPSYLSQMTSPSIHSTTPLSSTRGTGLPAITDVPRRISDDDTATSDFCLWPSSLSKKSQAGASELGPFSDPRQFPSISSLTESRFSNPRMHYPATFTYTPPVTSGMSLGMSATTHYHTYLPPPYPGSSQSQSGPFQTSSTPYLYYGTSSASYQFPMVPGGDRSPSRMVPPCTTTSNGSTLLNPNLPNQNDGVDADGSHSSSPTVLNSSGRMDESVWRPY
# Runx2-del-415-418, sequence (chain, as listed by the source): as above
# myc-labeled HDAC4, sequence (P56524 whole entry): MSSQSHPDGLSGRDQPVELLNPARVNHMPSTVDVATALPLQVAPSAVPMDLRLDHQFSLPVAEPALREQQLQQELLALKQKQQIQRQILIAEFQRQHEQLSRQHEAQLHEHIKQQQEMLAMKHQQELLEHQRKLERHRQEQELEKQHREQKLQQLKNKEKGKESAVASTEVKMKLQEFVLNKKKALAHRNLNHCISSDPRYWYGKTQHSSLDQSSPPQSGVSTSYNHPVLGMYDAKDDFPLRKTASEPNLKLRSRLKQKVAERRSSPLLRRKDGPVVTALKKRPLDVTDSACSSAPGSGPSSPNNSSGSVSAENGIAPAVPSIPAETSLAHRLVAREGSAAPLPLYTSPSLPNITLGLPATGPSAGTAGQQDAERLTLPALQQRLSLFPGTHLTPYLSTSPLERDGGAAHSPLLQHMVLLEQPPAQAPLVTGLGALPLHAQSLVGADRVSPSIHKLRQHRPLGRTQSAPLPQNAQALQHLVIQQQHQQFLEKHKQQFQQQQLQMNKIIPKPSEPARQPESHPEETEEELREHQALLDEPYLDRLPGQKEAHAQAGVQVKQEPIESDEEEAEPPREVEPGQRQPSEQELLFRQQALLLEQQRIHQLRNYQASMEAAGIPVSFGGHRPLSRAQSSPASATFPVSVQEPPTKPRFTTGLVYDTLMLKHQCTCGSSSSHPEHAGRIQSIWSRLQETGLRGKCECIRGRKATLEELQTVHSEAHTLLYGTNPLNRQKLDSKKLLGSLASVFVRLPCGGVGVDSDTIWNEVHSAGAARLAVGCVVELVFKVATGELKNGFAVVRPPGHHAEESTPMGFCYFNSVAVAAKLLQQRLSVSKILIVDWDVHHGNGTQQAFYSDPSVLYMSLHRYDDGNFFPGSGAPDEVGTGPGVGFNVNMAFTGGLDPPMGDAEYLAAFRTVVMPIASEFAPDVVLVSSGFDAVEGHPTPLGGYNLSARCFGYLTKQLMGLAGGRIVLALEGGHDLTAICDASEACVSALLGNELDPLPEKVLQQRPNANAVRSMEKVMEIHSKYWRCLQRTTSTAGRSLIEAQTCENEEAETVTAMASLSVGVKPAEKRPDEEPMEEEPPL
# Runx2-P415R, sequence (chain, as listed by the source P415R): as the sequence (chain, as listed by the source) above, with P415R counted along it
# myc-labeled HDAC5, sequence (Q9UQL6 whole entry): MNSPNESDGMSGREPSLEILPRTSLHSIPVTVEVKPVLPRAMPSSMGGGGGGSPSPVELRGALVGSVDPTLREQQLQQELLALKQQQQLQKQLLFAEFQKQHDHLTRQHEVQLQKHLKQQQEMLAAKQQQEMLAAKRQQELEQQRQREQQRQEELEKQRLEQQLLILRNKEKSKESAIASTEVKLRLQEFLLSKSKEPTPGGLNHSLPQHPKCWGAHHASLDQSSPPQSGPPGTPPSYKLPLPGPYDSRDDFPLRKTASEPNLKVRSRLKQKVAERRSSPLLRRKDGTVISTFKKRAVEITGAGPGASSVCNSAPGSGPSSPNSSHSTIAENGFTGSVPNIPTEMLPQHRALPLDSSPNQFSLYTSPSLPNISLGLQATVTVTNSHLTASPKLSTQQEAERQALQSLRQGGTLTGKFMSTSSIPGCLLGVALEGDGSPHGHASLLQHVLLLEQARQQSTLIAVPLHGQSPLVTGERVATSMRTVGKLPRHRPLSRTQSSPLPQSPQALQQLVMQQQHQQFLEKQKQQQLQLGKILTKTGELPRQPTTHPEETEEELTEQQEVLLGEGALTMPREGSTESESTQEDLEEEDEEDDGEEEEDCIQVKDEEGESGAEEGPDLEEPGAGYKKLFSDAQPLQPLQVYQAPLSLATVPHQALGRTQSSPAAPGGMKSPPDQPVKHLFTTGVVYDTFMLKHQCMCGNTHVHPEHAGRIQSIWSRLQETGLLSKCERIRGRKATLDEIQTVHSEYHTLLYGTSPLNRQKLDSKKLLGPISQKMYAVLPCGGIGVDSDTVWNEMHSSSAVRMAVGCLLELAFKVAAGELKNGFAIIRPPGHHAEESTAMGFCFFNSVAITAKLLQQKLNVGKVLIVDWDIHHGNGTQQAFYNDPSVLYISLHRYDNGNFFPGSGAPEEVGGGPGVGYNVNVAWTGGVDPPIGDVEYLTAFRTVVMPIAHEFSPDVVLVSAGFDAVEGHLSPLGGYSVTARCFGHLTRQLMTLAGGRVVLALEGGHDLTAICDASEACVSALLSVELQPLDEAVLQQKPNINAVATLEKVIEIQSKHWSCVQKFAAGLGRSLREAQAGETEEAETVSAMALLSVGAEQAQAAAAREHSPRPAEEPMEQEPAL
Substance,"Runx2 deacetylation (immunoprecipitation with anti-acetyl-lysine antibody, Western blot with anti-myc antibody) (myc-labeled Runx2)",Smurf1-mediated degradation of Runx2 (Western blot of Runx2 level) (Runx2-P415R),Smurf1-mediated degradation of Runx2 (Western blot of Runx2 level) (Runx2-del-415-418)
myc-labeled HDAC5,histone deacetylases 4 and 5 deacetylate Runx2,–,–
myc-labeled HDAC4,histone deacetylases 4 and 5 deacetylate Runx2,–,–
Smurf1 (Smad ubiquitin regulatory factor 1),–,"Runx2-del-415-418 and Runx2-P415R were very stable, which means they were strongly resistant to Smurf1-mediated degradation","Runx2-del-415-418 and Runx2-P415R were very stable, which means they were strongly resistant to Smurf1-mediated degradation"
